Data taken from article PMC9985226, “A fully human connective tissue growth factor blocking monoclonal antibody ameliorates experimental rheumatoid arthritis through inhibiting angiogenesis” (BMC Biotechnology, 2023).

B1: anti-CTGF scFv B2 (scFv, V domains shown)
VH: QVQLVQSGAEVKKPGESLKISCKGSGYKFTSYWIAWVRQMPGKGLEWMGIIYPGGSDTRYSPSFQGQVTISDDRSSSTTYLQWSSLKASDTAIYYCARSGELMDVWGQGTTVTVSS
VL: SYVLTQPPSVSVSPGQTVSITCSGDKLGNKYASWYQQRPGQSPILVIYQDTKRPSGIPERFSGSNSGNTATLTISGTQAMDEADYYCQAWDSNTAFFGTGTKVTVL
notes: VH of scFv B2; the classical (Gly4Ser)3 linker between VH and VL; VL of scFv B2; Order VH-linker-VL as in the library construction; Selected from a fully human phage library made from PBMCs of RA patients; also called parental scFv B2; source: E. coli (pET28a, IPTG induced), purified (Ni Sepharose)
B2: mut-scFv B2 (scFv, V domains shown)
VH: QVQLVQSGAEVKKPGESLKISCKGSGYKFTSYWIAWVRQMPGKGLEWMGIIYPGGSDTRYSPSFQGQVTISDDRSSSTTYLQWSSLKASDTAIYYCARLGGAMDVWGQGTTVTVSS
VL: SYVLTQPPSVSVSPGQTVSITCSGDKLGNKYASWYQQRPGQSPILVIYQDTKRPSGIPERFSGSNSGNTATLTISGTQAMDEADYYCQAWDSNTAFFGTGTKVTVL
notes: VH of mut-scFv B2; as the VH of m2 with three changes in VH-CDR3; the classical (Gly4Ser)3 linker between VH and VL; VL as the VL of m2; source: E. coli (pET28a, IPTG induced), purified (Ni Sepharose)
B3: anti-CTGF IgG mut-B2 (antibody, V domains shown)
VH: QVQLVQSGAEVKKPGESLKISCKGSGYKFTSYWIAWVRQMPGKGLEWMGIIYPGGSDTRYSPSFQGQVTISDDRSSSTTYLQWSSLKASDTAIYYCARLGGAMDVWGQGTTVTVSS
VL: SYVLTQPPSVSVSPGQTVSITCSGDKLGNKYASWYQQRPGQSPILVIYQDTKRPSGIPERFSGSNSGNTATLTISGTQAMDEADYYCQAWDSNTAFFGTGTKLTVL
notes: heavy chain: VH of m3 with human IgG1 constant region; light chain: VL of m3 with antibody constant region; Human IgG1 format; also called full-length antibody IgG mut-B2; source: ExpiCHO, transiently expressed, purified from supernatant (Protein G Sepharose); copies: 2 + 2

Tests used:
[1] = molecular target: T1, recombinant human connective tissue growth factor (CTGF) (Homo sapiens, UniProt P29279); assay: cell-based or functional assay
T1 sequence (P29279 27-349): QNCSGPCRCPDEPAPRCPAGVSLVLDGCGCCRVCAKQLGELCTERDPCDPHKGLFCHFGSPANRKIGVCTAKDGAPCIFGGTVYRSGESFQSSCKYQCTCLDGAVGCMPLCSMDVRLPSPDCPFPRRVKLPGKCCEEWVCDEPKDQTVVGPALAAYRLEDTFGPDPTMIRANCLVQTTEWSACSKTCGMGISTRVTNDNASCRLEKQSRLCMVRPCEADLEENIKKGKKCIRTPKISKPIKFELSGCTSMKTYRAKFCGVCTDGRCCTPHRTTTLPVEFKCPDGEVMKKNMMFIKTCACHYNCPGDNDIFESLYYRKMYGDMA

[2] = molecular target: T1, recombinant human connective tissue …; assay: SPR; Biacore T200; CTGF amine-coupled on a CM5 chip; scFvs or IgG in running buffer PBS pH 7.4 flowed for 3 min at 10 µl/min, 5 min dissociation, regeneration with 1 M NaCl; conditions: both partners purified

Binder	EC50 of inhibition of CTGF-induced HUVEC proliferation, CCK-8 assay, scFv 1-500 nM [1] [nM]	Kd [2] [nM]	koff [2] [s⁻¹]	kon [2] [M⁻¹ s⁻¹]
B1	37.4	252	0.00574	22800
B2	27.5	1.96	0.00222	1.13e+06
B3		0.782	0.00365	4.67e+06
